Entries after “also recorded” stand apart in the source; their conditions may differ.
Biological target: T1, rat Axl (Rattus norvegicus, UniProt A0A0G2K2H0)
T1 sequence (A0A0G2K2H0 21-879): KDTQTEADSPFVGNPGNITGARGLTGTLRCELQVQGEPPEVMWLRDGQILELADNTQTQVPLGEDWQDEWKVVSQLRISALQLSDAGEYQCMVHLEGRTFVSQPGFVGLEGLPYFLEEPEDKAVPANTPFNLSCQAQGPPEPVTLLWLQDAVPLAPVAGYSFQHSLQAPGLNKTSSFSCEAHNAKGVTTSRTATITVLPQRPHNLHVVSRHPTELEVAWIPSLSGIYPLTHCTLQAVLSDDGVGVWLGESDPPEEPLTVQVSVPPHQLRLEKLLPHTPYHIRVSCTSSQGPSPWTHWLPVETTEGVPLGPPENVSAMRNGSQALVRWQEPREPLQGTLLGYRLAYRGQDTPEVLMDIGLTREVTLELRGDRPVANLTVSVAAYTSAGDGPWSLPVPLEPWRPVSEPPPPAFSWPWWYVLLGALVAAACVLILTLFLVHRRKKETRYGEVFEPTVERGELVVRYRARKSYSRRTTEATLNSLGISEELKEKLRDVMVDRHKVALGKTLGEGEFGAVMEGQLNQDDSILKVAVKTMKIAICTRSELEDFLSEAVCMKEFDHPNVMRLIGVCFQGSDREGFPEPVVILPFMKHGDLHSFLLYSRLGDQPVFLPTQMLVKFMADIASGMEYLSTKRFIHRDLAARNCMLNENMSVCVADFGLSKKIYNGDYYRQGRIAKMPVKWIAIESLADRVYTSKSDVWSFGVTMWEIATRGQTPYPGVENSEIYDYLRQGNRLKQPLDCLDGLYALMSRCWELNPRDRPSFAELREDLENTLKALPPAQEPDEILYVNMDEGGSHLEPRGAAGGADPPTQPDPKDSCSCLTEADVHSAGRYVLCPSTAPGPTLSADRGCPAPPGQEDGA
Assay: BA3011 binding to rat Axl

B1: Mecbotamab vedotin (conjugate, chains of the INN, looked up)
VH: EVQLVQSGAEVKKPGATVKISCKVSGYSFWGATMNWIRQPPGKGLEWIGLIKPSNGGTSYNQKFKGRVTISADKSISTAYLQWSSLKASDTAMYYCAHGHYESYEAMDYWGQGTLVTVSS
VL: DIQMTQSPSSLSASVGDRVTITCKASQDVVSAVAWYQQKPGQAPRLLIYWQDTRHTGVPSRFSGSGSGTEFTLTISSLQPDDFATYYCQEHFSPPLTFGQGTKVEIK
modifications: MC-vc-PAB-MMAE conjugate
**Q.** Which “binding to rat Axl” value does the source give for B1 here?
**A.** not mouse or rat Axl; also recorded: lacked binding to the rodent enzyme

From patent US20250276075A1, “METHODS OF TREATING AXL-EXPRESSING CANCERS WITH ANTI-AXL ANTIBODIES, ANTIBODY FRAGMENTS AND THEIR IMMUNOCONJUGATES” (BIOATLA, INC., priority 2020, published 2025)
